This is an account of results in PMC8096239, “Nse5/6 is a negative regulator of the ATPase activity of the Smc5/6 complex”.

For one data set, the target named is T1, Nse5/6 (Saccharomyces cerevisiae, UniProt Q03718;P40026 1-556;1-464).
T1 sequence 1: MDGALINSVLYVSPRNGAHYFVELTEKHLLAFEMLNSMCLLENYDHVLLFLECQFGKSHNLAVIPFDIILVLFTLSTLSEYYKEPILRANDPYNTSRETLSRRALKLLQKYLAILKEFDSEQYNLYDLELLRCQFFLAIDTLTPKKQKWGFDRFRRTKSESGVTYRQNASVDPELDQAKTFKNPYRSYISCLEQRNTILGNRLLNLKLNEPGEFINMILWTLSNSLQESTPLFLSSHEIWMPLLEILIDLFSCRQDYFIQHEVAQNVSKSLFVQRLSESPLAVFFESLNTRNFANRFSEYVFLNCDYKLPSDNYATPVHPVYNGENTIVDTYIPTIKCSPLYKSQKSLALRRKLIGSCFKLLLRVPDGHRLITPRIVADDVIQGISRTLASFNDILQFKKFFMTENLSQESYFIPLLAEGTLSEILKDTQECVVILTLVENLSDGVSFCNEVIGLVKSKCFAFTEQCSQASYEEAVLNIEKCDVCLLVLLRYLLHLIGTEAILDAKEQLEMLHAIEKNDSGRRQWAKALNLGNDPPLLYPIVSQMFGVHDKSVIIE
T1 sequence 2: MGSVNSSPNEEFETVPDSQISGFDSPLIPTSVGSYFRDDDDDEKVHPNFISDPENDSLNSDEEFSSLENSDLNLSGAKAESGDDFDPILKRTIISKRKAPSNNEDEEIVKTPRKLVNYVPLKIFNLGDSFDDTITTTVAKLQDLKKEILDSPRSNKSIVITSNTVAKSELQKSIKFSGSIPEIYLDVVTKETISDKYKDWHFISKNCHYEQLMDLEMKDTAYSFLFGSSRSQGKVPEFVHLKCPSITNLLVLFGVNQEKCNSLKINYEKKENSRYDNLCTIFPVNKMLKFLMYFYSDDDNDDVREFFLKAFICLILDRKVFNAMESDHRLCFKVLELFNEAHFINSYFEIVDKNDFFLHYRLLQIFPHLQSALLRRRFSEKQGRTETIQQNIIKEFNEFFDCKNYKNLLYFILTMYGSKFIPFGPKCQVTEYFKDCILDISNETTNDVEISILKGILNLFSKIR
Briefly: EMSA; more extensive concentration range; EMSA: 200 nM hairpin, 20 mM HEPES-NaOH pH 7.5, 150 mM NaCl, 0.5 mM TCEP, 30 min at 4 C; 0.8% TBE-agarose gel, 50 V, 3 h, 4 C. The conditions noted are these: protein: recombinant, tags: Nse5-C.tag (GAAEPEA), HIS-3C-Nse6, copies: 1;1, label: fluorescein on position 5 of thymine, 6-carbon spacer, 48 bp stem, 4 nt loop AATA, blunt end.

Data set [1] addresses Smc5/6 core complex (S5-S6-N2) (Saccharomyces cerevisiae, UniProt Q08204;Q12749;P38632 1-1093;1-1114;1-267). Nature of the data set: EMSA; some aggregated material in wells at high concentration; EMSA: 200 nM hairpin, 20 mM HEPES-NaOH pH 7.5, 150 mM NaCl, 0.5 mM TCEP, 30 min at 4 C; 0.8% TBE-agarose gel, 50 V, 3 h, 4 C. The conditions noted are these: protein: recombinant, tags: Smc5-FLAG, Smc6-AVI-HIS, HA-Nse2, copies: 1;1;1, label: fluorescein on position 5 of thymine, 6-carbon spacer, 48 bp stem, 4 nt loop AATA, blunt end.

In data set [2] the target is Smc5/6 holo-complex (S5-S6-N2/N1-N3-N4) (Saccharomyces cerevisiae, UniProt Q08204;Q12749;P38632;Q07913;Q05541;P43124 1-1093;1-1114;1-267;1-336;1-303;1-402). Nature of the data set: EMSA; Hill slope 3.5; 200 nM DNA; two shifted species; 3 repeats; EMSA: 200 nM hairpin, 20 mM HEPES-NaOH pH 7.5, 150 mM NaCl, 0.5 mM TCEP, 30 min at 4 C; 0.8% TBE-agarose gel, 50 V, 3 h, 4 C. The conditions noted are these: protein: recombinant, tags: Smc5-FLAG, Smc6-AVI-HIS, HA-Nse2, HIS-TEV-Nse1, Nse3 untagged, Nse4-HALO-Myc, copies: 1;1;1;1;1;1, label: fluorescein on position 5 of thymine, 6-carbon spacer, 48 bp stem, 4 nt loop AATA, blunt end.

Sequence of Smc5/6 core complex (S5-S6-N2) (Q08204 whole entry, chain 1 of 3): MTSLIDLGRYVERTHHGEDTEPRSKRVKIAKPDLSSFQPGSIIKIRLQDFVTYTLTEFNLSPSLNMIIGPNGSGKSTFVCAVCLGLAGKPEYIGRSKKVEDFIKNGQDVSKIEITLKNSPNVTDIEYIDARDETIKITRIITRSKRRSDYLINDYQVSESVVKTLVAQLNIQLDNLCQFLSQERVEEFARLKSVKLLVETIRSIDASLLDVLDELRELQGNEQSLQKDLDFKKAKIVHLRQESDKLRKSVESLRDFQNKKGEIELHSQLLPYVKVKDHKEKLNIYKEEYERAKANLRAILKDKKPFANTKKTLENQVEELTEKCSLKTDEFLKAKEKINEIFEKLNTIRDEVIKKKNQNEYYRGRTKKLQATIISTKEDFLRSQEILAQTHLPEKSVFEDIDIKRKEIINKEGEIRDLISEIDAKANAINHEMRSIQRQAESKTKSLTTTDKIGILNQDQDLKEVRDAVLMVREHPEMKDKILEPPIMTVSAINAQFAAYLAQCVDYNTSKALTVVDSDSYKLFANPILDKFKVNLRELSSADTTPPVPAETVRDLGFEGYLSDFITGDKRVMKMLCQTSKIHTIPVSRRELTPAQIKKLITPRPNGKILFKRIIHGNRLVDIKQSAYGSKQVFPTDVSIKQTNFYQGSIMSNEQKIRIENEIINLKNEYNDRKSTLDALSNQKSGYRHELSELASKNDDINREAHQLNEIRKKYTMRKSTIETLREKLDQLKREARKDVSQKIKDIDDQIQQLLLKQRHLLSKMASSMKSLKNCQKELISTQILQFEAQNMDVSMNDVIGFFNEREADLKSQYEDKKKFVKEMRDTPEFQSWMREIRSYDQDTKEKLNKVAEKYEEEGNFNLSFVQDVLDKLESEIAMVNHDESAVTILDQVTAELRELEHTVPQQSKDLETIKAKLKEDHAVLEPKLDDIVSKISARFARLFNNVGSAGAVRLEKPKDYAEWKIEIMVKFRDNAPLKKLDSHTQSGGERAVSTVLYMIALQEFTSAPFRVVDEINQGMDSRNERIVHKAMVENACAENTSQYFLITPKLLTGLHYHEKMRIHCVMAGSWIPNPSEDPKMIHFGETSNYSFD
Sequence of Smc5/6 core complex (S5-S6-N2) (Q12749 whole entry, chain 2 of 3): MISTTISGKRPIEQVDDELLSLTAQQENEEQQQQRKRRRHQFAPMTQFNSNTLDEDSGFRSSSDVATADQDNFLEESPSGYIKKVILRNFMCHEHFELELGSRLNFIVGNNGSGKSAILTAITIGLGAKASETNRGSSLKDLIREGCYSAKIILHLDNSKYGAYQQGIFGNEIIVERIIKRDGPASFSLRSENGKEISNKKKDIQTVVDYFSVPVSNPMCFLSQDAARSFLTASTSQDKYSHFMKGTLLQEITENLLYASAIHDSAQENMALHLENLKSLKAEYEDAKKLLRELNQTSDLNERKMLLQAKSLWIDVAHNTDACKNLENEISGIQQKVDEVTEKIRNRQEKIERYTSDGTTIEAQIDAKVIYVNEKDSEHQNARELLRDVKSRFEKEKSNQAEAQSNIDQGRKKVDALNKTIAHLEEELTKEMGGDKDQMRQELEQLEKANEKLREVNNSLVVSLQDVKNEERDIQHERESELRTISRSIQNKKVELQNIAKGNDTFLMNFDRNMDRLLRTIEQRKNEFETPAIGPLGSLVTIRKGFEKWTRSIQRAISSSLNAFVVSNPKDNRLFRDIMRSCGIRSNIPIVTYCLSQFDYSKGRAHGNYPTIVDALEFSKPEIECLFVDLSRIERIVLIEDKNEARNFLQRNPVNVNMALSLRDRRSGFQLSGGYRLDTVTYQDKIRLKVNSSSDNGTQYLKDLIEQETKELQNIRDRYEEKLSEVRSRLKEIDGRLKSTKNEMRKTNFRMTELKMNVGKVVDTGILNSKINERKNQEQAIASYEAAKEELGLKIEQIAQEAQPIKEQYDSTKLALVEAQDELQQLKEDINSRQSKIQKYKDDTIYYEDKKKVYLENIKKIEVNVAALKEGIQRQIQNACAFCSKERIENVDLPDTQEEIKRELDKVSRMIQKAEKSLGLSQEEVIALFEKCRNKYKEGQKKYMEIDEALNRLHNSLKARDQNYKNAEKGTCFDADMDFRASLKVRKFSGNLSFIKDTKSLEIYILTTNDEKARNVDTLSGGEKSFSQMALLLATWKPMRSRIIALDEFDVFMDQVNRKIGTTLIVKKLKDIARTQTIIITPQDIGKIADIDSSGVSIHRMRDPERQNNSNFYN
Sequence of Smc5/6 core complex (S5-S6-N2) (P38632 whole entry, chain 3 of 3): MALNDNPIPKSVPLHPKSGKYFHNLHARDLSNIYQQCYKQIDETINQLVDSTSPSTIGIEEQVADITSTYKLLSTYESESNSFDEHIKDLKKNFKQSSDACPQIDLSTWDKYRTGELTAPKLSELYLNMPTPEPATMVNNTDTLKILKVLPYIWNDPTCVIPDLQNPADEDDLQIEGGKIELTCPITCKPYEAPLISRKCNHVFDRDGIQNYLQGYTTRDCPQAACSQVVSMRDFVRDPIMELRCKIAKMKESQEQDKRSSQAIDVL

B1: oligonucleotide C, self-annealed dsDNA hairpin (structured_DNA)
DNA: ATCAGTACTTGTCAACACGAGCAGCCCGTATATTCTCCTACAGCACTAAATATAGTGCTGTAGGAGAATATACGGGCTGCTCGTGTTGACAAGTACTGAT
modifications: internal fluorescein-dT (iFT), between S3 and S4 (position 51, in loop)
In the case of B1, the binding result (with Nse5/6; in data set [1]) was “no binding” in each case. Moreover, the Kd in data set [2] is about 220 nM.
